Assay results reported in the DeepSol protein solubility set.

Assay: soluble on expression in E. coli; label from the status in PepcDB or PDB records

| Sequence | soluble on expression in E. coli |
| --- | --- |
| MVRDMRFCYRCGISEEEGGPLINGLCQVCFRKENPVLLLPSEINTELCQNCGSYKKRGVWVDPKNYELEALIFEVAENALLEALEDNLKVKDFEVVNWEELDEISEIPVGKAFVAYRVVDYHIEYFPAIVIYEVRSKARIHELQVEPHDERTTVTVYVRQTVCPRCQKFLAGYYEAILQVRVEGREFTKEEREEITKLVQEKVDEIMKRDRMGFIQDTIEKEEGIDFYMGSTSAARKLANAIREKYGGTISEAYELVGMDRQTSREVYRTSVTVRLPKFRKGDVVEDRYGRVYEVEEVNGKGMRLKNLETWKSEHYDWKTIKRERVDLANYEEKKAMLVSKTPSEVQFMDMETYETFEVKKPTDELKEGEVYTVVRVKGRMYVKEEVKELEHHHHHH | soluble |
| MMMDILMYLFETYVHSDADLQVDQDQLEDELLRAGFHQKDIYKALHWLEELAALQQTDAQTAIAKSAPTSMRIYAPEEIERLDLESRGFLLFLEHINVLTPETREMVIDRVMGLETDEFELDDLKWIILMVLFNVPGNENAYTVMEELLYSKEQGILH | not soluble |
| MSLSLWWKRAKARMTESVTYYQEPAFEKLLPDPDPTFERPYTLCLSLDDLLIHSEWTREHGWRIAKRPGVDYFIRYLSQYYELVLFTTTPYATGEPVMRKLDPFRLILWPLYREATKFEDGEIVKDLSYLNRDLSKVIIIDTKAKHVRNQPDNAIILDPWKGDKDDKNLVNLIPFLEYIHTMQYSDVRKVIKSFDGKDIPTEGHHHHHH | not soluble |
| GAPSQGATANAETQTTIPLGDTSQNALDWPGVYEGVLPCASCEGIQTTLTLQADNSFELKSIYLGKDESIFKVAGKFDWDSNGSKITLSDGSKYLVGENQLLMLDTEGNRITGGLAEHYILKKKGM | soluble |
| DSTFTNISLADDIDHSSRILYPRPKSLLPKMMNADMDVDAENQVELEEKTRLINQVLELQHTLEDLSARVDAVKEENLKLKSENQVLGQYIENLMSASSVFQTTDTKSKRK | not soluble |
| MGCMNRENALHIVKQQMHEKRYIHTIGVMETAIELAKLYGVDEKKAEMAAIFHDYAKCRAISEMEEIIKREDLPKDLLCYNKELWHAPVGAYLVEKEVGITDSEILQAITYHTSGHENMTMLDKVIYVADYIEPGRKFPGVEEARKLAYTDINQALLFALKRTIQFLMEKDQTIYPLTFQTYNAVIKEEMSK | not soluble |
| MVTLILLAGGSGTRASLNLPKQYYRIEEKMVIEYTLENVSRVKGVDNIILVSNPRFMDTALELKESFPKIKDVAKGGRTRNESIYNGFMKVPQKESKILVHDAVRPFTPRWVFERIISLLDERDVITTVNPITGNLIELDNGKVKRIYDRSKFAIGEAPTGYRYGALKKTLEVAVSNGTLNEIPHDIVLAMNAGFDVYVLPCNCFNLKITFKEDIEIARTLIKMLEERE | soluble |
| MSLGASTNWDDHAIIIFGYPETIANSIILHFANFGEILEDFRVIKDFKKLNSKNMSKSPSLTAQKYPIYTGDGWVKLTYKSELSKSRALQENGIIMNGTLIGCVSYSPAALKQLASLKKSEEIINNKTSSQTSLSSKDLSNYRKTEGIFEKAKAKAVTSKVRNAEFKVSKNSTSFKNPRRLEIKDGRSLFLRNRGKIHSGVLSSIESDLKKREQASKSKKSWLNRLNNWLFGWNDLEGHHHHHH | soluble |
| MSLNGQNTISDIGDATEDQIKDVIQIMNDNIDKFLERQERVSLLVDKTSQLNSSSNKFRRKAVNIKEIMWWQKVKNITLLTFTIILEGHHHHHH | not soluble |
| MGSDKIHHHHHHMQALRKCYGIVGADDIVSEMKTWQVTSNDPHEGLTKWADGLDEAFVQLEPVATTGDGFYGHIQQTSTAELDVSVVTSTGHEIRRLDRHIRHRSADLLYVNILGRGRSEVSQRDTVVAAPMDVSIVDPRAPYSIRQEAPFQLVSIAVPPDWVEREARHCHFLSRTAAGRELSSVVWGLAKMLLAIKPDQDGLATSLAQQIHHSLALLPEMAGSDATPRVSVAMLQSYVQRHFSQPDLRAEHLARQFGISVRRVHQLFEPTGHTVSEFINDLRLARAADCLGDAALARRTISEIAWQVGYSDPSYFTRRFKRRYGCSPRAYRAAHHPAPIARLS | not soluble |
| MGSDKIHHHHHHMAPDTSMSSRDALPPLACLRAFEAAARHASFTQAGSELHLTQSAVSRQIKRLEDDLGRPLFERHYEGLRLTPAGERYFGVVQRLLRDLRDETARLRRRGDDRQLTLASSPTIASIWLARQLPDFQRAHPHIEIRILTVEDPHRLDLAEFDLGIYYHVPHEVDPPGLDAEAIFSHEEVAAVCSPAYLARHGDIRDADDLLARHTLMVVEDHYHDWLTWEGWYQAQNLAWRTPEHSLRANSFQLLMNAILAGQGVTLGWTRLLAADLAQHNLVQALPHTLPSRGRLSLLTPQHRHLTEPMRAFRAWVLGPA | not soluble |
| MMKALILAGGSGERFWPLSTPETPKQFLKLFGNKSLMRWTFERVLEEMDPKDVIVVTHKDYVERTKKELPELPDENIIAEPMKKNTAPACFIGTKLADDDEPVLVLPADHRIPDTKKFWKTVKKALDALEKYDGLFTFGIVPTRPETGYGYIEIGEELEEGVHKVAQFREKPDLETAKKFVESGRFLWNSGMFLWKAREFIEEVKVCEPSIYENLKDVDPRNFEELKKAYEKVPSISVDYAVMEKSKKVRVVKADFEWSDVGNWSSVREIEGYTEESDEVILVDSDRVFVKTHNKPIAVVGLSDVIVIDTPNGILICKEEYAQKVREVVKKLFRTS | soluble |
| MARSFKVLSPTAILGYGFPEESFRKAMAESPDLIAVDAGSSDPGPHYLGAGKPFTDRAGVKRDLRYMITAGVQNNIPVVIGTAGGSGAAPHLEWCREIIHEIAREEHLSFSMALIPADVDKAIVHQALDNGKITALDFVPPLTHDAIDESTYIVAQMGIEPFQRALKERAQVVLGGRAYDPACFAALPIMQGFDEGLALHCGKILECAAIAATPGSGSDCAMGIIDDNGFTLKTFNPKRKFTETSAAAHTLYEKSDPYFLPGPGGVLNLKGCTFKAVNDGEVYVSGSKHEETPYALKLEGARRVGFRCLTIAGTRDPIMIAGIDKIIDEVKTSVSRNLSLDDDSIRINFHLYGKNGVMGDHEPMQTAGHELGIVLDVVAPTQEIANSVCSLVRSTMLHYGYENRIATAGNLAFPFSPSDIQGGPVYEFSIYHLIEANDALRFDFHIEQVTPEGVQA | soluble |
| MGSDKIHHHHHHDTEKKVSEEGFVFTTVKENPITSVKNQNRAGTCWCYSSYSFLESELLRMGKGEYDLSEMFTVYNTYLDRADAAVRTHGDVSFSQGGSFYDALYGMETFGLVPEEEMRPGMMYADTLSNHTELSALTDAMVAAIAKGKLRKLQSDENNAMLWKKAVAAVHQIYLGVPPEKFTYKGKEYTPKSFFESTGLKASDYVSLTSYTHHPFYTQFPLEIQDNWRHGMSYNLPLDEFMEVFDNAINTGYTIAWGSDVSESGFTRDGVAVMPDDEKVQELSGSDMAHWLKLKPEEKKLNTKPQPQKWCTQAERQLAYDNYETTDDHGMQIYGIAKDQEGNEYYMVKNSWGTNSKYNGIWYASKAFVRYKTMNIVVHKDALPKAIKAKLGIK | not soluble |
| MSLHPVQHSAREQVNAQVLSAASQKIESLAQQRQWHDYRYTFKVYISSQIATAAPCATTPGVTLTSPVDIALNRMNFTVSCPQSWQMNVAVRPDVLVPVVMAKSLVARDTPLTANDVELKPYNVSAQRREVLMELDDAIGLSSKHALQPGKPITKEELVSPVLVGRDQPVMIVYQSAGITASMPGVALKNGRKGEMVKVRNASSQRVISAMVAESGVVTTVGAEEGHHHHHH | soluble |
| MSYLDFNSMLNNLYTKFGDSSFENVFYLPEPKISKKSTRIDWININVFLKSVNRSIEHFINYLKNDRKISTTYQNNILIIQGKYRKEDINKMMLEYVNKFCKCPICSSYDTLLVKDGTIRKEKIICSKCKSTTFCS | not soluble |
| MDYQQDEYDEPFRIHLNLDNLTEDEAKARFSLIYDQHAQTMKRRETNDYLRPICIDGTDVSNKLNHIIRKNMDLFPVDKSIFNMRAITMALWYFISRGHAAVVFLPTNLRDFAQKCSDPHELSLLAKLELIVFDESTALNPSSAVLLSKTVATWAQNNDGCIVGSRKKYGLLGQRYSELIDRVTNTLISPAFTPDNELEICDLVRLVLAADEVRRNDENSNCMGYQLLASDQVVIMSKLAKMIGKDSMIDLCNRARELNTSTNPNYRNIFNNQKQSTSMGRVYQSPYHFNDPFLPDYVAPPPPIALESVAKPTRIGHRHSIYRVGEDKSTELENGDNRRKAVYRGALIDALQPMFGLEKATALVNGNPDQNEINDLIELGINQ | not soluble |
| MSNQSKLNSAAYDQLNKDADRILHLIKVQMDNLTLPSCPLYEEVLDTQMFGLQKEVDFAVQLGLVDKEDGKQLMLRLEKELSKLHEAFTNV | not soluble |
| MMELETGQCTIMELKKENVKELAQVFKTVAFKDTGTWHASEAGMKITVDDGSYQLASVFINPAFFSSFKVREEIVSMKISIKSISEFLSISENSSSSVKVSYPGMFQPVKMLVEDADGWVARGNFTTTLADQELDFEFDDAGVLATYLLKTQVLKEIIKDFDDTSRTVRIQFTKNSLCFTTFGDVGETTVSIPSRSLQMESVKCLEEVEFSYLLSLIQRMTTAFILATKLILRVDERGVLSCQFSIDHGEGNASYIEFLTVPADEEE | not soluble |
| MHHHHHHSSGVDLGTENLYFQSMAKSAEVKLAIFGRAGVGKSALVVRFLTKRFIWEYDPTLESTYRHQATIDDEVVSMEILDTAGQEDTIQREGHMRWGEGFVLVYDITDRGSFEEVLPLKNILDEIKKPKNVTLILVGNKADLDHSRQVSTEEGEKLATELACAFYECSACTGEGNITEIFYELCREVRRRRMVQ | soluble |
| MAQSLPPGDIDFQPRKIVFNAPYNEKQVFQIKLINTSALRIAFGINTYMRKLRVDTLCTPRCGVLDPNEHILLAVSCSAFAFGQVDTTNDRITVEWTNTPEGSDKQFCREWLEGEGMVRRKIILIEYNSTPIAPKPTTSSKPLLQATKLGMWLPIGFAASELYDYEKGVPLDRETCEKNLEKLIKNDRDVDYYEWLNLAQQCRTENHKLMEQMALGMAFTSAMANKQHKKVSRKADKDKITGAIVQNKMFSIETAEIWDRVLTLPNRKWFQISDVVTDGEVSNWSSANLVTHVRALARSVFDKVDEADPHMMCYATSQNACIYVPIDKDFFDGFAEYLIGGFGQEQSRDLKLQVRKLVTEVMGNKLNRVRARYNKMYGKDASEEAAKWMREELDKKDGELKECQLIFSKGSKSSYAIEVHGEEEEDLVKSEVLSGDEDVEME | not soluble |
| MKIAGLKQLNTALKEAASGGFSRQASRWLEECGQDFLEIVQSELISTQTIDTEKLLSSFEKGAEDNLWIVQSGGLSLEVGTQLDYASFLNDGHWTSKQDVRWVPGRFQGSRFIYDPAASTGMALKRKWIPGTGYWDHALLLYEQLFEKSLESKLRQWLKKLLEHHHHHH | soluble |
| MDWMPLGDYETFRHWSGKPRAWGPQESGWRAWFGGKIVDGLCEVLDEHLAVRRRGVPAAIGCVPWLSSEAVAETLLALSVFCVVIDKGTSFPSRLRNPDKGFPNVALLRLRDMAPSEHGSRCSSARGRLCLSMS | not soluble |
